Reference: patent US20150368301

System: Unphosphorylated Nox1 peptide (KLKTQKIYF, "LocKiT")

## PKC-βI (protein kinase C-βI)
  in vitro kinase assay, heat of phosphorylation measured by ITC; dot blot with p-STY antibody: The slope of the reaction following the heat of dilution confirms that the Nox1 peptide is a substrate for PKC-βI
